Target: Trichomonas vaginalis virus 1 strain UH9 coat protein (Trichomonas vaginalis virus 1 (TVV1), strain UH9)
Experiment: cryo-EM structure

For “Trichomonas vaginalis virus 1 strain UH9 coat protein (natural protein)”, the stoichiometry N (subunits per capsid) was 120.

— PMC3622925
